Experimental data as given in paper PMC9741643.

Legend:
[1] = biological target: mouse IgG1 kappa anti-CD3 antibody (clone UTH1, BD bioscience 555329) (mouse); assay: cross-linking; photo-crosslinking through BpA in PpL: 50-100 uM PpL construct with 1-4 uM antibody in PBS pH7.6, 365 nm light (6.4 mW/cm^2) up to 1 h; products reduced with DTT and read on SDS-PAGE
[2] = biological target: Cetuximab (Selleck Chemicals A2000); assay: as above

Substance	yield of conjugated to un-conjugated light chain (by gel intensity) [1]	photoconjugation yield (by gel) [2]
PpL-R33BpA (PpL-linker-FLAG construct with BpA at R33) (designed binder)	30%	–
PpL-R33BpA with linker arm and Sortase A recognition site (PpL with the sortase site only) (designed binder)	–	75%
